Source: IntAct's records for PubMed 11752373

B1: E3 ubiquitin-protein ligase COP1 (Arabidopsis thaliana (Mouse-ear cress)), P43254 (parent)
chain: MEEISTDPVVPAVKPDPRTSSVGEGANRHENDDGGSGGSEIGAPDLDKDLLCPICMQIIKDAFLTACGHSFCYMCIITHLRNKSDCPCCSQHLTNNQLYPNFLLDKLLKKTSARHVSKTASPLDQFREALQRGCDVSIKEVDNLLTLLAERKRKMEQEEAERNMQILLDFLHCLRKQKVDELNEVQTDLQYIKEDINAVERHRIDLYRARDRYSVKLRMLGDDPSTRNAWPHEKNQIGFNSNSLSIRGGNFVGNYQNKKVEGKAQGSSHGLPKKDALSGSDSQSLNQSTVSMARKKRIHAQFNDLQECYLQKRRQLADQPNSKQENDKSVVRREGYSNGLADFQSVLTTFTRYSRLRVIAEIRHGDIFHSANIVSSIEFDRDDELFATAGVSRCIKVFDFSSVVNEPADMQCPIVEMSTRSKLSCLSWNKHEKNHIASSDYEGIVTVWDVTTRQSLMEYEEHEKRAWSVDFSRTEPSMLVSGSDDCKVKVWCTRQEASVINIDMKANICCVKYNPGSSNYIAVGSADHHIHYYDLRNISQPLHVFSGHKKAVSYVKFLSNNELASASTDSTLRLWDVKDNLPVRTFRGHTNEKNFVGLTVNSEYLACGSETNEVYVYHKEITRPVTSHRFGSPDMDDAEEEAGSYFISAVCWKSDSPTMLTANSQGTIKVLVLAA
B2: Cryptochrome-1 (Arabidopsis thaliana (Mouse-ear cress)), Q43125 (parent)
chain: MSGSVSGCGSGGCSIVWFRRDLRVEDNPALAAAVRAGPVIALFVWAPEEEGHYHPGRVSRWWLKNSLAQLDSSLRSLGTCLITKRSTDSVASLLDVVKSTGASQIFFNHLYDPLSLVRDHRAKDVLTAQGIAVRSFNADLLYEPWEVTDELGRPFSMFAAFWERCLSMPYDPESPLLPPKKIISGDVSKCVADPLVFEDDSEKGSNALLARAWSPGWSNGDKALTTFINGPLLEYSKNRRKADSATTSFLSPHLHFGEVSVRKVFHLVRIKQVAWANEGNEAGEESVNLFLKSIGLREYSRYISFNHPYSHERPLLGHLKFFPWAVDENYFKAWRQGRTGYPLVDAGMRELWATGWLHDRIRVVVSSFFVKVLQLPWRWGMKYFWDTLLDADLESDALGWQYITGTLPDSREFDRIDNPQFEGYKFDPNGEYVRRWLPELSRLPTDWIHHPWNAPESVLQAAGIELGSNYPLPIVGLDEAKARLHEALSQMWQLEAASRAAIENGSEEGLGDSAEVEEAPIEFPRDITMEETEPTRLNPNRRYEDQMVPSITSSLIRPEEDEESSLNLRNSVGDSRAEVPRNMVNTNQAQQRRAEPASNQVTAMIPEFNIRIVAESTEDSTAESSSSGRRERSGGIVPEWSPGYSEQFPSEENGIGGGSTTSSYLQNHHEILNWRRLSQTG
partner: B1 chain

Variants of: B1
Settings: with cry1_arath CRY1, Q43125

Variant	effect of a mutation on the interaction
W467A	decreasing interaction
K550E	decreasing interaction
G524E	decreasing interaction
K422E	decreasing interaction
R465E	decreasing interaction
E592R	decreasing interaction

Variants of: B2
Settings: with cop1_arath COP1, P43254

Variant	effect of a mutation on the interaction
E559K	disrupting interaction
E531K	decreasing interaction
E515K	decreasing interaction
R576K	decreasing interaction
R611K	decreasing interaction
R581K	decreasing interaction
P549L	decreasing interaction
